Data: patent publication US20220315633A1 (Janssen / Centocor, published 2022)

Molecular target: T1, human GDF15 receptor (GFRAL) stably over-expressed on SK-N-AS cells (human, UniProt Q6UXV0 19-394)
T1 sequence (looked up): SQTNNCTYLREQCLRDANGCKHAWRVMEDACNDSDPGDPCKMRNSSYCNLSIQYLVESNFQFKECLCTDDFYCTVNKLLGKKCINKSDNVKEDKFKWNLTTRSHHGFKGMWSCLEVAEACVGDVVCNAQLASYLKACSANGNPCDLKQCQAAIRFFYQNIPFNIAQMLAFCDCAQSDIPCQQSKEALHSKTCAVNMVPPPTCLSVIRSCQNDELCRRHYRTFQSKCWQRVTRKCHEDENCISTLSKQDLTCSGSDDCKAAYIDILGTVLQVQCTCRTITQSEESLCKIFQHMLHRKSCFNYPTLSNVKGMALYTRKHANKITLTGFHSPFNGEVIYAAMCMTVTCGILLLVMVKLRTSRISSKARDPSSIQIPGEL
Experiment: cell-based or functional assay

B1: Native GDF15 (ligand, UniProt Q99988 197-308, looked up)
chain: ARNGDHCPLGPGRCCRLHTVRASLEDLGWADWVLSPREVQVTMCIGACPSQFRAANMHAQIKTSLHRLKPDTVPAPCCVPASYNPMVLIQKTDTGVSLQTYDDLLAKDCHCI
- EC50, cell-based pAKT (phospho-AKT Ser473) assay: 0.153 nM
